Test results published in PMC5670330.

Biological target: GFP-SR-BI (scavenger receptor BI) on CHO cells (UniProt Q8WTV0)
Chain of UniProt Q8WTV0 (Q8WTV0 whole entry): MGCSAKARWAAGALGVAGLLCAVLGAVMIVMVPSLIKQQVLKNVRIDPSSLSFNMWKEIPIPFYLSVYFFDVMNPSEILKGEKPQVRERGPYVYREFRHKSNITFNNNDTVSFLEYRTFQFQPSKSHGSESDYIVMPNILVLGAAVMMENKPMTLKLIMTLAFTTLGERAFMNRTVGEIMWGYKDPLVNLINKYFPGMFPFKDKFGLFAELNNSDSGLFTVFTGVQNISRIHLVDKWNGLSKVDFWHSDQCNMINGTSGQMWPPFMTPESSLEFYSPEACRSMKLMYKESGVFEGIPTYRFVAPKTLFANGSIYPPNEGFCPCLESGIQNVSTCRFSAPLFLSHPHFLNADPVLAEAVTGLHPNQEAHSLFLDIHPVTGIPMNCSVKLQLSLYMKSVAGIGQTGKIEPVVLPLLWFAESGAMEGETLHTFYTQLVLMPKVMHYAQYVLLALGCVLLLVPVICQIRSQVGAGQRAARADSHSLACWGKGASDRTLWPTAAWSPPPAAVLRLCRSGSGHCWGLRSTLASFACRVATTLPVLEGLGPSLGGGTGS

- AF568-HDL internalization by HCCMECs after pre-treatment with 10 ug/mL blocking anti-SR-BI scFv (percent decrease): 57%
Substance: Alexa Fluor 568 labeled human high-density lipoprotein (from UniProt P02647 19-267) (complex)
